Laboratory results taken from US20140017269A1 (CHILDREN S HOSPITAL MEDICAL CENTER, published 2014).

Target: the molecule itself
Assay: method not given; self-association

B1: NoV P^--M2e protein (other)
chain: SRTKPFTVPILTVEEMSNSRFPIPLEKLYTGPSSAFVVQPQNGRCTTDGVLLGTTQLSAVNICTFRGDVTHIAGSHDYIMNLASQNWNNYDPTEEIPAPLGTPDFVGKIQGMLTQTTREDGSTRAHKATVSTGTVHFTPKLGSVQYTTSSLLTEVETPIRNEWGCRCNDSSDIDILQTGQNTKFTPVGVIQDGNNHQNEPQQWVLPNYSGRTGHNVHLAPAVAPTFPGEQLLFFRSTMPGCSGYPNMNLDCLLPQEWVQHFYQEAAPAQSDVALLRFVNPDTGRVLFECKLHKSGYVTVAHTGPHDLVIPPNGYFRFDSWVNQFYTLAPMGNGAGR
notes: also called NoV P^--M2e dimer
B1: binds.
